Values quoted from earlier work, collected in publication PMC7054563.

Biological target: Glu150 (UniProt position 150, LMANVELIAPL)

In the case of “Multidrug transporter MdfA, triple mutant E26T/D34M/A150E (Escherichia coli; E26T;D34M;A150E)”, the pKa is given as 6.5.
